In US11110182B2, “Multifunctional RNA nanoparticles and methods for treating cancer and therapeutic resistant cancer” (University of Cincinnati, priority 2016, dated 2021):

Tested on: BT474 orthotopic xenograft tumors
Test: Anti-tumor therapy in BT474 orthotopic xenograft breast tumor mouse model
Format: in vivo, athymic nude mice
Settings: for tumor lung metastasis: H&E staining of whole lung
Description: FIG. 5A) BT474 orthotopic xenograft mouse models were treated with control pRNA-HER2apt-siScram or pRNA-HER2apt-siMED1 (4 mg/Kg) once a week, in combination with vehicle or tamoxifen (TAM, 0.5 mg/mice/day) 5 days per week. Tumor sizes were measured every three days. FIG. 5B) After three weeks, mice were i.p. injected with D-luciferin, and representative in vivo images of BT474 tumors were recorded using IVIS Lumina imaging system. FIG. 5C) Average weight of the tumors excised at the end of the treatment, and FIG. 5D) the representative photos of tumors. FIG. 5E and FIG. 5F) MED1 expression in the BT474 tumors was examined using IHC staining and FIG. 5G) immunoblotting. FIG. 5H) The expression of Ki-67 in tumor tissues was analyzed using IHC staining, and FIG. 5I) the percentage of Ki-67 positive cells was counted. Scale bar: 100 μm.
FIG. 6A) Whole lung tissues were fixed, embedded, and sectioned for H&E staining, and FIG. 6B) metastasis foci in the whole lung tissues were then counted. Arrow indicates the metastasis foci. Scale bar: 100 μm. FIG. 6C) After digesting tumor tissues with trypsin and 0.1% collagenase, tumor cells were stained for CD44 and CD24, and FIG. 6D) analyzed for CD44^+CD24^−/low stem cell population using flow cytometry. FIG. 6E) Total RNA in the tumor tissues was extracted using TRIZOL reagent, and the expression of TFF-1, FIG. 6F) c-Myc, FIG. 6G) cyclin D1, and FIG. 6H) MMP-9 were determined by real-time PCR.
Migration and metastasis assay. The 8-μm-pore-size polycarbonate membrane, which separates the two chambers of a 6.5-mm Transwell (Costar), was coated with or without 1:8 DMEM-diluted Matrigel (Corning). Transwell assay was performed as previously described.^57 Briefly, BT474 cells were treated with pRNAs alone or together with 4-hydroxy-tamoxifen (4-OHT) for 48 h and starved with serum-free DMEM containing 0.2% BSA overnight. On the next day, cells were collected and 2×10^5 cells were seeded to the upper chamber of Transwell. The lower chamber was filled with 600 μL DMEM medium containing 10% FBS. After incubation at 37° C. for 24 h, cells on the membranes were fixed and stained with 0.1% crystal violet in 20% ethanol solution. Cells at top side of membranes were removed completely, and cells at the bottom side were examined with an Olympus SZX12 microscope and counted. • Mammosphere culture and breast cancer stem cell analyses. BT474 cells were treated with pRNAs for 48 h. Then, cells were suspended in DMEM/F12 medium supplemented with 1×B27 (Thermo Fisher), 20 ng/mL bFGF and 20 ng/mL EGF (R&D), and added into 24-well ultralow attachment plates. After treatment with or without 1 μM 4-OHT for 7 days, mammosphere formation was recorded using an Axiovert S100 TV inverted microscope (Zeiss). Xenograft tumor tissues were cut into small pieces and digested with trypsin and collagenase at 37° C. for 1 h, and tumor cells were collected and rinsed with pre-cold PBS. All cells were stained with FITC-conjugated anti-CD44 antibody and PE-conjugated anti-CD24 antibody (BD Pharmingen) in the dark on ice for 30 min. After resuspension with 0.5 mL PBS buffer, CD44^+/CD24^−/low cell population was analyzed by flow cytometry. • Orthotopic xenograft breast tumor mouse model, in vivo imaging and anti-tumor therapy. Six-week-old female athymic nude mice were purchased from Charles River Laboratories, and all animal procedures were performed under IACUC-approved protocols at the University of Cincinnati. Athymic nude mice were orthotopically injected with 1×10^7 BT474-luc cells mixed with matrigel into the fat pads of the forth pair of mammary glands. When the tumor sizes reached 100-150 mm^3, the mice were randomly divided into four groups (4/group) and intravenously (i.v.) injected with pRNAs (4 mg/Kg) once a week for three weeks. For tamoxifen treatments, 0.5 mg tamoxifen (Sigma) dissolved in sesame oil was intraperitoneally (i.p.) injected into mice 5 days a week for three weeks. […]

B1: pRNA-HER2apt-siMED1: 3-WJ pRNA nanoparticle bearing a HER2-targeting RNA aptamer and two different MED1 siRNAs; strands p1 SEQ ID NO: 3, p2 SEQ ID NO: 4 (nucleic acid)
chain 1: GGACAGUGAAAGUGAGUCAAAGGAUCAAUCAUGGCCAAAGAUGUUACUUUGAGAGCCUU
chain 2: GGCUCUCAAAGUAACAUCUAAGGCCAUGUGUAUGUGGGGGGAGGACGAUGCGGUCUGCUGUGCUUGAUAUGCCCCAGACGACUCGCCCCCCACAUACUUUGUUGAUCCAAUGACUCACUUUCACUGUCCUU
modifications: 2'-F modification; third strand may lack entry; pRNA-HER2apt-siMED1, p1; pRNA-HER2apt-siMED1, p2
Ki-67 expression in tumor sections (IHC staining): dramatic reduction | expression of MED1 in tumors (IHC staining and western blot of BT474 tumors): significantly depleted | CD44^+CD24^−/low cancer stem cells in breast tumors (combined with tamoxifen, flow cytometry): almost complete depletion | tumor lung metastasis (in combination with tamoxifen): totally eradicated | tumor growth (pRNA 4 mg/Kg i.v. once a week in combination with tamoxifen 0.5 mg i.p. 5 days a week, three weeks): almost completely suppressed tumor growth | tumor burden (pRNA alone, 4 mg/Kg i.v. once a week, three weeks): reduced tumor burden | CD44^+CD24^−/low cancer stem cells in the breast tumors (pRNA alone, flow cytometry): significantly reduced | tumor lung metastasis (single agent): totally eradicated | tumor growth (single agent, pRNA 4 mg/Kg i.v. once a week or tamoxifen 0.5 mg i.p. 5 days a week, three weeks): significantly inhibited tumor growth
